T1: zyxin, amino acids 323-572, Gal4 activation-domain fusion (prey clone) (yeast (Saccharomyces cerevisiae); human, UniProt P04386 768-881; Q15942 323-572)
T1 construct: range 768-881;range 323-572; Clone from the human brain cDNA library in pACT2
T1 sequence (looked up): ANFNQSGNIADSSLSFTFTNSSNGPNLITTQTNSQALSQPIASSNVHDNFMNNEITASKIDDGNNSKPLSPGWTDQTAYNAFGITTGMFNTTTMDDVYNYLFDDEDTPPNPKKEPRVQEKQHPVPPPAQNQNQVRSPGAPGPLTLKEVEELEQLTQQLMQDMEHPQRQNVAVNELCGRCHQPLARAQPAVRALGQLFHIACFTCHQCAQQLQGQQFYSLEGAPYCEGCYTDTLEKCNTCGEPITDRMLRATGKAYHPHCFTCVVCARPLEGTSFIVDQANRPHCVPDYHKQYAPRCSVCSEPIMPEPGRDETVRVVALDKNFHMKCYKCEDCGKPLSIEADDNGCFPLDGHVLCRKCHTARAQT

B1: Oxysterol liver X receptor alpha (LXR-alpha), amino acids 95-277, Gal4 DNA-binding-domain fusion (bait) (receptor, UniProt P04386 1-147, looked up)
chain: MKLLSSIEQACDICRLKKLKCSKEKPKCAKCLKNNWECRYSPKTKRSPLTRAHLTEVESRLERLEQLFLLIFPREDLDMILKMDSLQDIKALLTGLFVQDNVNKDAVTDRLASVETDMPLTLRQHRISATSSSEESSNKGQRQLTVSNELCSVCGDKASGFHYNVLSCEGCKGFFRRSVIKGAHYICHSGGHCPMDTYMRRKCQECRLRKCRQAGMREECVLSEEQIRLKKLKRQEEEQAHATSLPPRASSPPQILPQLSPEQLGMIEKLVAAQQQCNRRSFSDRLRVTPWPMAPDPHSREARQQRFAHFTELAIVSVQEIVDFAKQLPG
notes: range 1-147;range 95-277; Bait made by PCR from brain cDNA and expressed in yeast from vector pGBTQ as a C-terminal fusion to Gal4 DBD
B2: Homer-3, amino acids 182-354, Gal4 activation-domain fusion (prey clone) (other, yeast (Saccharomyces cerevisiae);human, UniProt P04386 768-881, looked up, not shown: small tags and cut ends)
chain: ANFNQSGNIADSSLSFTFTNSSNGPNLITTQTNSQALSQPIASSNVHDNFMNNEITASKIDDGNNSKPLSPGWTDQTAYNAFGITTGMFNTTTMDDVYNYLFDDEDTPPNPKKEEVQWEAEFFALQDSNNKLAGALREANAAAAQWRQQLEAQRAEAERLRQRVAELEAQAASEVTPTGEKEGLGQGQSLEQLEALVQTKDQEIQTLKSQTGGPREALEAAEREETQQKVQDLETRNAELEHQLRAMERSLEEARAERERARAEVGRAAQLLDVSLFELSELREGLA
notes: range 768-881;range 182-354; Clone from the human brain cDNA library in pACT2; The printed GenBank number has one digit too many
B3: EIF3S1, amino acids 94-254, Gal4 activation-domain fusion (prey clone) (other, yeast (Saccharomyces cerevisiae);human, UniProt P04386 768-881, looked up, not shown: small tags and cut ends)
chain: ANFNQSGNIADSSLSFTFTNSSNGPNLITTQTNSQALSQPIASSNVHDNFMNNEITASKIDDGNNSKPLSPGWTDQTAYNAFGITTGMFNTTTMDDVYNYLFDDEDTPPNPKKEEIKKRLEEPEEPKVLTPEEQLADKLRLKKLQEESDLELAKETFGVNNAVYGIDAMNPSSRDDFTEFGKLLKDKITQYEKSLYYASFLEVLVRDVCISLEIDDLKKITNSLTVLCSEKQKQEKQSKAKKKKKGVVPGGGLKATMKDDLADYGGYDGGYVQDY
notes: range 768-881;range 94-254; Clone from the human brain cDNA library in pACT2; also called translation initiation factor EIF3S1
B4: CIR, amino acids 226-450, Gal4 activation-domain fusion (prey clone) (other, yeast (Saccharomyces cerevisiae);human, UniProt P04386 768-881, looked up, not shown: small tags and cut ends)
chain: ANFNQSGNIADSSLSFTFTNSSNGPNLITTQTNSQALSQPIASSNVHDNFMNNEITASKIDDGNNSKPLSPGWTDQTAYNAFGITTGMFNTTTMDDVYNYLFDDEDTPPNPKKERKLDRLEKKKKKKDRKKKKFQKSRSKHKKHKSSSSSSSSSSSSSSTETSESSSESESNNKEKKIQRKKRKKNKCSGHNNSDSEEKDKSKKRKLHEELSSSHHNREKAKEKPRFLKHESSREDSKWSHSDSDKKSRTHKHSPEKRGSERKEGSSRSHGREERSRRSRSRSPGSYKQRETRKRAQRNPGEEQSRRNDSRSHGTDLYRGEKMYREHPGGTHTKVTQRE
notes: range 768-881;range 226-450; Clone from the human brain cDNA library in pACT2; also called transcription factor CIR
B5: Oxysterol liver X receptor alpha (LXR-alpha), amino acids 95-156, Gal4 DNA-binding-domain fusion (bait) (receptor, UniProt P04386 1-147, looked up)
chain: MKLLSSIEQACDICRLKKLKCSKEKPKCAKCLKNNWECRYSPKTKRSPLTRAHLTEVESRLERLEQLFLLIFPREDLDMILKMDSLQDIKALLTGLFVQDNVNKDAVTDRLASVETDMPLTLRQHRISATSSSEESSNKGQRQLTVSNELCSVCGDKASGFHYNVLSCEGCKGFFRRSVIKGAHYICHSGGHCPMDTYMRRKCQECRLR
notes: range 1-147;range 95-156; Bait expressed in yeast from pGBTQ as a C-terminal fusion to Gal4 DBD

Assays:
[1] = molecular target: T2, PSMD11, amino acids 87-422, Gal4 activation-domain fusion (prey clone) (yeast (Saccharomyces cerevisiae); human, UniProt P04386 768-881; O00231 87-422); assay: yeast two-hybrid; prey clone identified for the bait of the same row (Ex. 10)
T2 construct: range 768-881;range 87-422; Clone from the human brain cDNA library in pACT2; also called proteasome subunit PSMD11
From the text: (§1) A total human brain (person) cDNA library cloned into the yeast expression vector pACT2 was purchased from Clontech (human brain […] cDNA, cat. # HL4004AH), transformed into the yeast strain J692 (genotype of this strain: Mat a, ade2, his3, leu2, trp1, URA3::GAL1-1acZ LYS2::GAL1-HIS3 ga14del ga180del cyhR2), and selected for the ability to drive leucine synthesis. In these yeast cells, each cDNA is expressed as a fusion protein with the transcription activation domain of the transcription factor Ga14 (amino acids 768 to 881) and a 9 amino acid hemagglutinin epitope tag. J693 cells (Mat α type) expressing the bait were then mated with J692 cells ([…]) expressing proteins from the brain library. The resulting diploid yeast cells expressing proteins interacting with the bait protein were selected for the ability to synthesize tryptophan, leucine, histidine, and β-galactosidase. DNA was prepared from each clone, transformed by electroporation into E. coli strain KC8 (Clontech KC8 electrocompetent cells, cat. # C2023-1), and the cells were selected on ampicillin-containing plates in the absence of either tryptophane (selection for the bait plasmid) or leucine (selection for the brain library plasmid). DNA for both plasmids was prepared and sequenced by di-deoxynucleotide chain termination method. […]

[2] = molecular target: B1; assay: yeast two-hybrid; prey clone identified for the bait of the same row (Ex. 6)
From the text: as §1

[3] = molecular target: T3, Oxysterol liver X receptor alpha (LXR-alpha), amino acids 257-448, Gal4 DNA-binding-domain fusion (bait) (yeast (Saccharomyces cerevisiae), UniProt P04386 1-147; Q13133 257-447); assay: yeast two-hybrid; prey clone identified for the bait of the same row (Ex. 8)
T3 construct: range 1-147;range 257-448; Bait expressed in yeast from pGBTQ as a C-terminal fusion to Gal4 DBD
From the text: as §1

[4] = molecular target: T4, Oxysterol liver X receptor alpha (LXR-alpha), amino acids 156-448, Gal4 DNA-binding-domain fusion (bait) (yeast (Saccharomyces cerevisiae), UniProt P04386 1-147; Q13133 156-447); assay: yeast two-hybrid; prey clone identified for the bait of the same row (Ex. 9)
T4 construct: range 1-147;range 156-448; Bait expressed in yeast from pGBTQ as a C-terminal fusion to Gal4 DBD
From the text: as §1

[5] = molecular target: T4, Oxysterol liver X receptor alpha …; assay: yeast two-hybrid; prey clone identified for the bait of the same row (Ex. 12)
From the text: as §1

[6] = molecular target: T1, zyxin, amino acids 323-572, Gal4 …; assay: yeast two-hybrid; prey clone identified for the bait of the same row (Ex. 4)
From the text: as §1

B1
binding result [1]: binds

B2
binding result [2]: binds

B3
binding result [3]: binds | binding result [4]: binds

B4
binding result [5]: binds

B5
binding result [6]: binds
